Measured values published in the supplement of paper PMC7877785.
± gives the uncertainty stated by the source.

Assay: self-splicing fitness, log relative to wild type (ln ratio); higher = more splicing; Tetrahymena group I intron in knt gene, E. coli kanamycin selection, DiMSum; sequences stand for … in CUCUCU…GGAGGGAAAAGUUAUCAGGCAUGCACCUGGUAGCUAGUCUUUAAACCAAUAGAUUGCAUCGGUUUAAAAGGCAAGACCGUCAAAUUGCGGGAAAGGGGUCAACAGCCGUUCAGUACCAAGUCUCAGGGGAAACUUUGAGAUGGCCUUGCAAAGGGUAUGGUAAUAAGCUGACGGACAUGGUCCUAACCACGCAGCCAAGUCCUAAGUCAACAGAUCUUCUGUUGAUAUGGAUGCAGUUCACAGACUAAAUGUCGGUCGGGGAAGAUGUAUUCUUCUCAUAAGAUAUAGUCGGACCUCUCCUUAAUGGGAGCUAGCGGAUGAAGUGAUGCAACACUGGAGCCGCUGGGAACUAAUUUGUAUGCGAAAGUAUAUUGAUUAGUUUUGGAGUACUCGUGGUCG
Method in brief: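 Library with all eight P1ex-region intron nucleotides randomised, intron inside the knt kanamycin-resistance gene on pET-22b(+), in E. coli BL21(DE3). Cells grew overnight at 37°C or 30°C on LB agar with or without 25 μg/mL kanamycin (plus 100 μg/mL carbenicillin, 50 μM IPTG, 0.2% rhamnose), in six replicate transformations. Pooled colonies were amplicon-sequenced on Illumina HiSeq 2500. DiMSum fitness is the error-weighted combination of wild-type-normalised replicate fold changes, kanamycin versus none.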

Row | Sequence | self-splicing fitness (ln) (30 °C) | self-splicing fitness (ln) (37 °C)
1 | CAUAAGCAAUAUUACGAGCC | -3.21 ± 0.35 | -2.41 ± 0.44
2 | CAUAAGCAAUAUUACGAGUC | -3.2 ± 0.43 | -2.68 ± 0.38
3 | CAUAAGCAAUAUUACGCACG | -1.64 ± 0.1 | -0.299 ± 0.13
4 | CAUAAGCAAUAUUACGCAGU | -3.05 ± 0.23 | -0.865 ± 0.13
5 | CAUAAGCAAUAUUACGCCCG | -0.556 ± 0.16 | -0.0931 ± 0.22
6 | CAUAAGCAAUAUUACGCCGU | -3.29 ± 0.36 | -1.15 ± 0.19
7 | CAUAAGCAAUAUUACGCCUG | -2.54 ± 0.22 | -1.39 ± 0.17
8 | CAUAAGCAAUAUUACGCGAC | -3.45 ± 0.33 | -3.11 ± 0.4
9 | CAUAAGCAAUAUUACGCGAU | -3.46 ± 0.26 | -3.08 ± 0.28
10 | CAUAAGCAAUAUUACGCGGG | -1.6 ± 0.17 | -2.18 ± 0.25
11 | CAUAAGCAAUAUUACGCUGG | -2.08 ± 0.18 | -2.03 ± 0.17
12 | CAUAAGCAAUAUUACGGAAA |  | -0.782 ± 0.37
13 | CAUAAGCAAUAUUACGGAAC |  | -2.26 ± 0.22
14 | CAUAAGCAAUAUUACGGAAU | -4.25 ± 0.23 | -2.43 ± 0.18
15 | CAUAAGCAAUAUUACGGAUA | -3.62 ± 0.19 | -2.87 ± 0.18
16 | CAUAAGCAAUAUUACGGGUA | -3.36 ± 0.21 | -2.64 ± 0.17
17 | CAUAAGCAAUAUUACGGUUG | -2.47 ± 0.094 | -1.59 ± 0.1
18 | CAUAAGCAAUAUUACGUAGU | -3.82 ± 0.28 | -0.576 ± 0.17
19 | CAUAAGCAAUAUUACGUCGU | -4.23 ± 0.34 | -1.64 ± 0.12
20 | CAUAAGCAAUAUUACGUGGU | -3.76 ± 0.17 | -3.31 ± 0.2
21 | CAUAAGCAAUAUUACGUGUU | -3.05 ± 0.13 | -2.62 ± 0.13
22 | CAUCAGCAAUAUUACGAGUA | -2.12 ± 0.12 | -1.47 ± 0.095
23 | CAUCAGCAAUAUUACGAUCU | -0.778 ± 0.06 | -0.771 ± 0.087
24 | CAUCAGCAAUAUUACGCACG | -0.443 ± 0.086 | 0.189 ± 0.11
25 | CAUCAGCAAUAUUACGCAUU | -1.36 ± 0.079 | -0.544 ± 0.1

Row | Sequence | self-splicing fitness (ln) (30 °C) | self-splicing fitness (ln) (37 °C)
26 | CAUCAGCAAUAUUACGGCGG | -0.364 ± 0.071 | 0.3 ± 0.12
27 | CAUCAGCAAUAUUACGGGGU | -4.39 ± 0.25 | -2.11 ± 0.25
28 | CAUCAGCAAUAUUACGGGUA | -0.63 ± 0.07 | -0.0764 ± 0.079
29 | CAUCAGCAAUAUUACGGUAA | -2.64 ± 0.14 | -1.09 ± 0.086
30 | CAUCAGCAAUAUUACGGUCA | -1.11 ± 0.076 | -0.81 ± 0.098
31 | CAUCAGCAAUAUUACGGUGA | -1.63 ± 0.12 | -1.4 ± 0.12
32 | CAUCAGCAAUAUUACGGUGG | -0.952 ± 0.045 | -0.393 ± 0.068
33 | CAUCAGCAAUAUUACGGUUG | -2.29 ± 0.072 | -0.804 ± 0.079
34 | CAUCAGCAAUAUUACGUGGU | -3.2 ± 0.096 | -2.07 ± 0.12
35 | CAUCAGCAAUAUUACGUUCA | -2.66 ± 0.16 | -1.77 ± 0.15
36 | CAUGAGCAAUAUUACGACAU | -3.739 ± 0.028 | -2.9 ± 0.043
37 | CAUGAGCAAUAUUACGACUA | -2.06 ± 0.27 | 
38 | CAUGAGCAAUAUUACGAGGA | -2.72 ± 0.23 | -2.62 ± 0.26
39 | CAUGAGCAAUAUUACGAGGC | -2.4 ± 0.2 | -2.34 ± 0.26
40 | CAUGAGCAAUAUUACGCAAU | -3.1 ± 0.38 | 
41 | CAUGAGCAAUAUUACGCGUA | -2.65 ± 0.24 | -2.45 ± 0.25
42 | CAUGAGCAAUAUUACGCUAC |  | -2.29 ± 0.49
43 | CAUGAGCAAUAUUACGCUCG | -2.72 ± 0.17 | -2.68 ± 0.4
44 | CAUGAGCAAUAUUACGCUGG | -3.36 ± 0.17 | -2.58 ± 0.18
45 | CAUGAGCAAUAUUACGCUUG | -2.74 ± 0.14 | -2.97 ± 0.21
46 | CAUGAGCAAUAUUACGGAAC | -3.01 ± 0.33 | -2.65 ± 0.35
47 | CAUGAGCAAUAUUACGGAAU | -4.62 ± 0.36 | -2.58 ± 0.28
48 | CAUGAGCAAUAUUACGGACA | -3.32 ± 0.48 | -0.812 ± 0.25
49 | CAUGAGCAAUAUUACGGCCA |  | -1.36 ± 0.41
50 | CAUGAGCAAUAUUACGGCCU | -2.67 ± 0.19 | -2.19 ± 0.25
